From the nanobody polyreactivity screen of Harvey et al. (2022)

Test: yeast display, Sf9 membrane polyspecificity reagent, FACS + sequencing; frameworks hold sequencing errors
Procedure, shortened: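 Using colony PCR, genes from sorted yeast display clones were amplified, then sequenced on MiSeq at 2 × 250 and filtered by CDR length. The clones had been stained with 10% biotinylated, detergent-solubilized Sf9 membrane reagent for 1 hour at 4 °C and sorted by FACS into low and high (top ~1%) gates on anti-HA and streptavidin fluorescence. Polyreactivity labels come from the gate of origin.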

| Sequence | polyreactivity (PSR sort gate) |
| --- | --- |
| QVQLVESGGGLVQAGGSLRLSCAASGSIGTYVMGWYRQAPGKERELVAAISLSGGSTYYADSVKGRFTISRDNAKNTVYLQMNSLKPEDTAVYYCNAVKATRNTGSDYWGQGTQVTVSS | low polyreactivity |
| QVQLVESGGGLVQAGGSLRLSCAASGSIGYYAMGWYRQAPGKERELVAVISRSGTGTSYADSVKGRFTISRDNAKNTVYSQMTSLKPEDTAVYYCNAETYTYRYENDYWGQGTQVTVSS | high polyreactivity |
| QVQLVESGGGLVQAGGSLRLSCAASGSIIARYAMGWYRQAPGKERELVAANTWSATSTYYADSVKGRFTISRDNAKNTVYLQMNSLKPEDTAVYYCNAGASYFLVISQSRGDYWGQGTQVTVSS | low polyreactivity |
| QVQLVESGGGLVQAGGSLRLSCAASGSIIDINALGWYRQAPRKERDLVAAISLSAGSTYYADSVKGRFSISRDNAKNTVYLQMNSLKPEDTAVYYGAAERGGRGTLRNRYDYWGQGTQVTVSS | low polyreactivity |
| QVQLVESGGGLVQAGGSLRLSCAASGSIIGDNAMGWSRQAPGKERELVADITNGGSTNYADSVKGRFTISRDNAKNTVYLQMNSLKPEDTAVYYCNKDIVWYGNYGYWGQGTQVTVSS | low polyreactivity |
| QVQLVESGGGLVQAGGSLRLSCAASGSIIGGYVMGWYRQAPGKERELVAAITSRVGSTYYADSVKGRFTISRDNAKNTVYLQMNSLKPEDTAVYYCAVVFAKRAWSRYDYWGQGTQVTVSS | high polyreactivity |
| QVQLVESGGGLVQAGGSLRLSCAASGSIIGRYAMAWYRPAPGQVRELVAAISTGGGRTYYADSVKGRFTISRDNAKNTVYLQMNSLKAEDTAVYYCNAGPYKGWGRMDYWGQGTQVTVSS | high polyreactivity |
| QVQLVESGGGLVQAGGSLRLSCAASGSIIGRYAMGWYRQAPGKERELVAAISTGGGRTYYADSVKGRFTISRDNAKNTVYLQLNSLKPEDTAVYYCNAGPYKGWGRMDYWGQGTQVTVSS | high polyreactivity |
| QVQLVESGGGLVQAGGSLRLSCAASGSIIGTNVMGWYRQPPGKERELVPSISYRDGTTYYADSVKGRFTISRDNAKNTVYLQMNSLKPEDTAVYYFAVANYYSYYWGQGTQVTVSS | low polyreactivity |
| QVQLVESGGGLVQAGGSLRLSCAASGSIIGTYAMGWYRQAPGKERELVAAISSSSTRTYYADSVKGRFTISRDTAKNTVYLQMNSLKPEDTAVYYCAATFTAVRGKYGYWGQGTQVTVSS | high polyreactivity |
| QVQLVESGGGLVQAGGSLRLSCAASGSIIKPYAMGWYRQAPGKERDLVAAIRSSGGRTNYADSVKGRFTISRDNAKNTVYLQMNSLKPEDTAVYYCAALVRVTGTYYTKYDFWGQGNQVTVSS | high polyreactivity |
| QVQLVESGGGLVQAGGSLRLSCAASGSIIPPNAMGWYRQAPGKERELVAGISSGGSTTYADSVKGRFTISRDNAKNTVYLQMNSLKPEDTAVYYCAADVPYGASIISYDYWGQGTQVTVSS | low polyreactivity |
| QVQLVESGGGLVQAGGSLRLSCAASGSIIQQYDKGWYRQAPGKHREFVAANSSSGGSTYYADSVKGRFTISRDNAKNTVYLQMNSLKPEDTAVYYCAVDTKGYTYVDYLHGSGEFGYWGQGTQVTVSS | low polyreactivity |
| QVQLVESGGGLVQAGGSLRLSCAASGSIIQVYAMGWYRQATGKERELVASITRTGGSTYYADSVKGRFTISRDNAKNTVYLLMNSLKPEDTAVYYCAAEKRYYYYVKYWKSDYWGQGTQVTVSS | low polyreactivity |
| QVQLVESGGGLVQAGGSLRLSCAASGSIIRSYTMGWYRQAPGKERELVASISRTGGSTHYADSVKGRFTISRDNAKNTVYLQMNSLKPEDTAVYYCNADTRRNRLMDYWGQGTQVTVSS | high polyreactivity |
| QVQLVESGGGLVQAGGSLRLSCAASGSIISAYAMGWYRQAPGKVREFVASITWSGGSTYYADSVKGRFTISRDNAKNTVYLQMNSLKPEDTAVYDCAAVYVTWYNNYEYWGQGTQVTVSS | high polyreactivity |
| QVQLVESGGGLVQAGGSLRLSCAASGSIISNYVMGWYRQAPGKERELDAAITRRGGRTYYADSVKGRFTISRDNAKNTVYLQMNSLKPEDTAVYYCAAEGYVYTFWDSTDFDYWGQGTQVTVSS | high polyreactivity |
| QVQLVESGGGLVQAGGSLRLSCAASGSIISYYAMGWYRQAPGKERELVAVINSGSTNYADSVKGRFTLSRDNSKNTVYLQMHSLNPEDTAVYYCAAYSLLYLLEQYTTAPYDYWGQGTQVTVSS | low polyreactivity |
| QVQLVESGGGLVQAGGSLRLSCAASGSIITPYTMGWDRQAPGKERELVAAISWSGATTHYADSVKGRFTISRDNAKNTVYLQMNSLKPEDTAVYYCAARWGLRSSRYYYWGQGTQVTVSS | high polyreactivity |
| QVQLVESGGGLVQAGGSLRLSCAASGSIITPYTMGWYRQAPGKERELVAAITGSAGSTYYADSVKGRFTISRDNAKNTVYLQMNSLKPEDTAVYYCAAAVWGVYQWYYYWGQGTQVTVSS | high polyreactivity |
| QVQLVESGGGLVQAGGSLRLSCAASGSIITWYTMGWYRQAPGKERELVAAISWSGGRTYYADSVKGRFTISRDNAKNTVYLQMNSLKPEDTAVYYCAASAYGRPPFDYWGQGTQVTVSS | high polyreactivity |
| QVQLVESGGGLVQAGGSLRLSCAASGSIIVGYAMGWYRQAPGTERELVAAISWSGGRTYYADSVKGRFTISRDNAKNSVYLQMNSLKPEDTAVYYCATVTKGSLRYNYNYWGQGTQVTVSS | high polyreactivity |

| Sequence | polyreactivity (PSR sort gate) |
| --- | --- |
| QVQLVESGGGLVQAGGSLRLSCAASGSIIVPYAMGWYRQAPGKERELVAAISSRGGRTYYADSVKGRFTISRDNAKNTVYLQMNSLKPEDTAVYYCNKTAGSHIPRLEYWGQGTQVTVSS | low polyreactivity |
| QVQLVESGGGLVQAGGSLRLSCAASGSIIVRYAMGWYRQAPGKERELVAAITSRGGSTYYAVSVKGRFTISRDNAKNTVYLQMNSLKPEDTAVYYCAAYGDQRSTPAIDKYGGQGTQVTVSS | low polyreactivity |
| QVQLVESGGGLVQAGGSLRLSCAASGSIIVRYAMGWYRQAPGKERELVASISKRGGSTYYADSVKGRFTISRDNAKNTVYLQMNSLKPEDTAVYYCAARVVTRVRGVGYNYWGQGTQVTVSS | high polyreactivity |
| QVQLVESGGGLVQAGGSLRLSCAASGSIIVVYAMGWSRQAPGKERELVAAISWGIGSTYYADSVKGRFTISRDNAKNTVYLLMNILKPEETAVYYCAAVTDIVLYDYWGQGTQVTVSS | low polyreactivity |
| QVQLVESGGGLVQAGGSLRLSCAASGSIIWRNAMGWYRQAPGKERELVAAITWSRGSTFYADSVKGRFTISRDNAKNTVYLQMNSLKAEDTAVYYCAAYGGRRFDYWGQGTQVTVSS | low polyreactivity |
| QVQLVESGGGLVQAGGSLRLSCAASGSIIYIYAMGWYRQAPGKERELVAAISSGDRTNYADSVKGRFTISRDNAKNTVYLQMNSLKPEDTAVYYCAARGRGSAAKYNYWGQGTQVTVSS | high polyreactivity |
| QVQLVESGGGLVQAGGSLRLSCAASGSIIYYYAMGWYRQAPGKERELVAAIRGGGSTNYADSVKGRFTISRDNAKNTVYLQMNSLKPEDTAVYYCNADYRNDCGTPLWYAYNYWGQGTQVTVSS | low polyreactivity |
| QVQLVESGGGLVQAGGSLRLSCAASGSILAYYARGWYRQAPGQERELVADIRAGGGNTYYADSVKGRFTISRDNAKNTVYLQMNSLKPEDTAVYYCNADWHFWYKWESYDYDYWGQGTQVTVSS | low polyreactivity |
| QVQLVESGGGLVQAGGSLRLSCAASGSILDGNAMGWYIQAPGKERELVAAISWNGARTYYADSVKGRFTISRDNAKNTVYLQMNSLKPEDTAVFYCAARRGSGKFGKYRGVDYWGQVTQVTVSS | high polyreactivity |
| QVQLVESGGGLVQAGGSLRLSCAASGSILDGNNMGWSRQAPGKERELVAAISWRGGSTYYADSVKGRFTISRDNAKNTVYLQMNSLKPEDTAVYYCNTYHPYWGSGFDYWGQGTQVTVSS | low polyreactivity |
| QVQLVESGGGLVQAGGSLRLSCAASGSILDTNAMGWYRQAPGKERELVARIDIDGSTNYADSVKGRFTISRDNAKNTVYLQMNSLKPEDTAVYYCAADAERHAPKFTYGTYDYWGQGTQVTVSS | low polyreactivity |
| QVQLVESGGGLVQAGGSLRLSCAASGSILDYYAMGWYRQAPGKERELVAAIRVNGGSTYYADSVKGRFTISRDNAKNTVYLQMNSLKPEDTAVYFCAARFSRFRRTRSEYDYWGQGTQVTVSS | high polyreactivity |
| QVQLVESGGGLVQAGGSLRLSCAASGSILEYYAMGWYRQAPGKERELVAGISSAGNTYYADSVKGRFTISRDNAKNTVYLQMNSLKPEDTAVYYCAAVPWSGEYDYWGQGTQVTVSS | low polyreactivity |
| QVQLVESGGGLVQAGGSLRLSCAASGSILFGNAMGWYRQAPGKEMELVAAITVSGGSTYYADSVKGRFTISRDNAKNTVYLQMNSLKPEDTAVYYCAAVSLFRDSQFDYWGQGTQVTVSS | low polyreactivity |
| QVQLVESGGGLVQAGGSLRLSCAASGSILFTNAMGWYRQAPGKERELVAAISSGGSTYYADSVKGRFTISRDNAKNTVYLQMNSLKPEDTAVYYCAADQLNVGREYVEYDYWGQGTQVTVSS | low polyreactivity |
| QVQLVESGGGLVQAGGSLRLSCAASGSILFYAMVWYRQAPGKERELVAAITWRGGSTYYADSVKGRFTISRDNAKNSVYLQMNSLKPEDTAVYYCARDETGRIEGDYWGQGTQVTVSS | high polyreactivity |
| QVQLVESGGGLVQAGGSLRLSCAASGSILGGNAMGWYRKAPGKERELVAAITFSGGGTYYADSVKGRFTISRDNAKNTVYLHMNSLKPEDTAVYYCAADKDGYTYEFDYWGQGTQGTVSS | low polyreactivity |
| QVQLVESGGGLVQAGGSLRLSCAASGSILGINVMGWYRQAPGKERELVAAISRRGGSTYYADSVKGRFTISRDNAKNTVYLQMNSLKPEDTAVYYCAATRTARTMGYCGQGTQVTVSS | high polyreactivity |
| QVQLVESGGGLVQAGGSLRLSCAASGSILGLNAMGWYRQAPGKERELVAAITSRGGSTYYADSVKGRFTISRDNAKNTVYLQMNSLKPEDTAVYYCNREYVRVNYQYWYYAEYDYWGQGTQVTVSS | low polyreactivity |
| QVQLVESGGGLVQAGGSLRLSCAASGSILGLNVMGWYRQAPGTEREVVAAISRRGGSTYYADSVKGRFTISRDNAKNTVYLQMNSLKPEDTAVYYCAATRTARTMGYWGQGTQVTVSS | high polyreactivity |
| QVQLVESGGGLVQAGGSLRLSCAASGSILGLYAMGWYRQAPEKDRELVAASTWSGGSTYYADSVKGRFTISRDNAKNTVYLQMNSLKPEDTAVYYCAALARGYWVVNSLGSYDYWGQGTQVTVSS | high polyreactivity |
